Laboratory results as given in patent US20250297255A1 (ARSENAL BIOSCIENCES, published 2025).

T1: Human Solute Carrier Family 34 Member 2 (SLC34A2) (human, UniProt O95436 1-690)
T1 construct: Endogenous on OVCAR-3 cells; engineered on 786-O cells in the CAR kinetics assay; also called NaPi2b; NPT2B
T1 sequence: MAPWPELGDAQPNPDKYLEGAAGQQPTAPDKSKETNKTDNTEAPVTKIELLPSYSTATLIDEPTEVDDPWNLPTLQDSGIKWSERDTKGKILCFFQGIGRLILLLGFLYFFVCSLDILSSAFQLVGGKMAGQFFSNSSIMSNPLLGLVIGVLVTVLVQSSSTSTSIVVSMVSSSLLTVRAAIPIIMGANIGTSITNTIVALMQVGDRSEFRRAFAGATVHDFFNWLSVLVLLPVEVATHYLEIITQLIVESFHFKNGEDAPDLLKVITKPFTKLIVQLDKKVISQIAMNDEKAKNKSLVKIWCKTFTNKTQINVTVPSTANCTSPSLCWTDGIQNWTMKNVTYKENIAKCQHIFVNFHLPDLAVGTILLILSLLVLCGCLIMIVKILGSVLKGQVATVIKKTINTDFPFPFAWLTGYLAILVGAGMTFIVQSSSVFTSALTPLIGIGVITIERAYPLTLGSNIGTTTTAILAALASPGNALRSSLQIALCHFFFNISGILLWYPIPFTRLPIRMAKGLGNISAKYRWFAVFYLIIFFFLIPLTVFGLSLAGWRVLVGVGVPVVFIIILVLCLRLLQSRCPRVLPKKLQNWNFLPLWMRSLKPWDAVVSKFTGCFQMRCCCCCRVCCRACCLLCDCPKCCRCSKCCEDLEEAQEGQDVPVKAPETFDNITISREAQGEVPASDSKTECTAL

T2: SLC34A2 peptide fragment (peptide 1) (human, biotinylated (site not stated))
T2 construct: ELISA antigen captured on NeutrAvidin plates; also called SLC34A2 peptide immunogen
T2 peptide: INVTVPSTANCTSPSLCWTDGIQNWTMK

T3: ECL-mFc fusion protein (human SLC34A2 ECL2 fused to murine Fc) (human, biotinylated (site not stated))
T3 construct: The range 234-362 is the ECL2 part counted on human SLC34A2; also called mECL2-Fc protein
T3 chain: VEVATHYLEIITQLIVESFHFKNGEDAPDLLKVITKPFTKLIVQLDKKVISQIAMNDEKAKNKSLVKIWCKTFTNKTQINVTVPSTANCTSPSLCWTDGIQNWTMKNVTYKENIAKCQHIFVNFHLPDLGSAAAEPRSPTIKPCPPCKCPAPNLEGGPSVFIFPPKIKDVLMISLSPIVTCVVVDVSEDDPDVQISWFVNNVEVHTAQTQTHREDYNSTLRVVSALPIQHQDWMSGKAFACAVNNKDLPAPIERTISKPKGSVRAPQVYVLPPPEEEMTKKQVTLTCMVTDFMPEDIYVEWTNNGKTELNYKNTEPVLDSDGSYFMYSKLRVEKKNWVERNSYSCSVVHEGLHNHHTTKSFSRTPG


Tests used:
[1] = molecular target: T1, Human Solute Carrier Family 34 Member 2 …; assay: flow cytometry on OVCAR-3 cells (endogenous human SLC34A2), hIgG1/kappa, 8 five-fold dilutions from 133 nM;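 further: binding read as geometric mean fluorescence intensity, with non-transfected HEK293 cells serving as the negative control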
Description: Antibodies were screened by standard flow cytometry methods for binding to human OVCAR-3 human ovarian cancer cells which endogenously express human SLC34A2. HEK293 cells were used as a non-transfected negative control. […] Stained cells were then resuspended in cold FACS buffer and analyzed by flow cytometry for geometric mean fluorescent intensity (GeoMFI) and total cell counts on an iQue automated flow cytometer.

[2] = molecular target: T2, SLC34A2 peptide fragment (peptide 1); assay: ELISA, biotinylated antigen on NeutrAvidin plate, anti-human Fc-HRP
Protocol: (§1) Briefly, NeutrAvidin plates were coated at 1 μg/ml overnight, washed and incubated with blocking buffer for at least 1 hr. Biotinylated antigens as well as irrelevant antigens were then added at 1 μg/ml for at least 1 hr at RT, followed by rigorous washing. […] After additional wash steps, 3,3′,5,5′-Tetramethylbenzidine (TMB) substrate was added and optical density read using an appropriate plate reader.

[3] = molecular target: T3, ECL-mFc fusion protein (human SLC34A2 …); assay: as above
Protocol: as §1

Binder | EC50 [1] | Max Signal by flow cytometry [1] | binding result [2] | binding result [3]
SLC34A2 Ab 13 (antibody, human IgG1, kappa, V domains shown, recombinant hIgG1/kappa from TAP products in Expi293) VH: QVQLVESGGGLVQPGRSLRLSCIGSGFTFGEYAMSWVRQAPGKGLEWVGFIRTKPYGGTTEFAASVKGRFTMSRDDSKSIAYLEMNSLKTEDTAVYYCTLIPALRFLEWLPWGQGTLVTVSS VL: EIVLTQSPSSLSASVGDRVTVTCRANQDINNYLAWYQQTPGKVPKLLIYAASTLQSGVPSRFSGSGSGTDFTLTISSLQPEDVATYYCQNYYSVPWTFGQGTKLEIKR | 41 nM | 233 | binds | binds
SLC34A2 Ab 14 (antibody, human IgG1, kappa, V domains shown, recombinant hIgG1/kappa) VH: QVQLQESGPGLVKPSETLSLTCTVSGGSVSSGSYYWSWIRQPPGKGLEWIGYIFYSGSTYYNPSLKSRVTISVDTSKNQFSLKLTSVTAADTAVYFCARWMTTVKGYFDYWGQGTLVTVSS VL: EIVLTQSPDFQSVTPKESVTITCRASQSVGSGLHWYQQKPDQSPKLLIKYASQSFSGVPSRFSGSGSGTDFTLTINSLEAEDAATYYCLQSSSLPWTFGQGTKVEIKR | 9 nM | 288 | binds | binds
SLC34A2 Ab 1 (antibody, human IgG1, kappa, V domains shown, recombinant hIgG1/kappa from TAP products in Expi293) VH: QVQLQESGPGLVKPSETLSLTCTVSGGSVSSGNFYWSWIRQPPGKGLEWIGYIYYSGSTYYNPSLKSRVTISVDTSKNQFSLKLRSLTAADTAVYYCARWMTKVKGYFDYWGQGTLVTVSS VL: EIVLTQSPDFQSVTPKEKVTITCRASQSVGSGLHWYQQKPDQSPKLLIKYASQSFSGVPSRFSGSGSGTDFTLTINSLEVEDAATFYCLQSSSLPWTFGQGTKVEIKR | 7 nM | 353 | binds | binds
SLC34A2 Ab 12 (antibody, V domains shown, recombinant hIgG1/kappa from TAP products in Expi293) VH: QVQLQESGPGLVKPSETLSLTCTVSGGSISSSSYYRGWIRQPPGKGLEWIGSIYYSGSTYYNPSLKSRVTISVDTSKNQFSLKLSSVTAADTAVYYCARHPRGSYGANFDYWGQGTLVTVSS VL: not shown | 5 nM | 305 | binds | binds

Continued by falling EC50 [1], values first:

EC50 [1] | Max Signal by flow cytometry [1] | binding result [2] | binding result [3] | Binder
16 nM | 278 | binds | binds | SLC34A2 Ab 7 (antibody, human IgG1, kappa, V domains shown, recombinant hIgG1/kappa from TAP products in Expi293) VH: QVQLQESGPELVKPSETLSITCTVSGGSISSRSYYWGWIRQPPGKGLEWIGSIYYGGSTYYNPSLKSRVTISADTSKNQFSLKLNSVTAADTAVFYCVRHPAGYSTRWSAFDIWGQGTMVTVSS VL: EIVLTQSPSSLSASVGDRVTITCRASQSISSYLNWYQQKPGRAPELLIYAASSLQSGVPSRFSGSGSGTDFTLTISSLQPEDFATYYCQQSFSSLTFGQGTRLEIKR
7 nM | 330 | binds | binds | SLC34A2 Ab 2 (antibody, human IgG1, kappa, V domains shown, recombinant hIgG1/kappa from TAP products in Expi293) VH: QVQLQESGPGLVKPSETLSLTCTVSGGSVSSGSYYWSWIRQAPGKGLEWIGYIYYSGSNYYNPSLKSRVTISVDTSKNQFSLKLRAVTAADTAVYYCARWMTTIKGYFDYWGQGTLVTVSS VL: EIVLTQSPDFQSVTPKEKVTITCRASQSVGSGLHWYQQKPDQSPKLLIKYASQSFSGVPSRFSGSGSGTDFTLTINSLETEDAATYFCQQSSSLPWTFGQGTKVEIKR
5 nM | 277 | no binding | binds | SLC34A2 Ab 4 (antibody, human IgG1, kappa, V domains shown, recombinant hIgG1/kappa from TAP products in Expi293) VH: QVQLLESGGGLVQPGGSLRLSCAASGFTFSSYAMNWVRQAPGKGLEWVSAISGGVGNTYYADSVKGRFTISRDNSKNTLYLQMNSLRAEDTAVYYCTKDGPLWGNYFDYWGRGTLVTVSS VL: EIVLTQSPSSLSASVGDRVTITCRASQGISNYLAWYQQKPGKVPNLLIYTASTLQSGVPSRFSGSGSGTDFTLTISSLQPEDVATYYCQKYNSAPFTFGPGTKVDIKR
